In article PMC8349458:

Biological target: ACE2-Fc-TD
Test: SPR

Substance	Half-life (ln2/kd) (s (from ln2/kd))	Kd [nM]
SARS-CoV-2 S1 domain, B.1.1.7 (alpha variant) (from UniProt P0DTC2 14-681) (domain or fragment)	1190	1.73
SARS-CoV-2 S1 domain, B.1.351 (beta variant) (from UniProt P0DTC2 14-681) (domain or fragment)	454	–
SARS-CoV-2 S1 domain, D614G (from UniProt P0DTC2 14-681) (domain or fragment)	–	6.91
